The source of these data is the supplement of paper PMC7877785.

± gives the uncertainty stated by the source.

The nature of this series: self-splicing fitness, log relative to wild type (ln ratio); higher = more splicing; Tetrahymena group I intron in knt gene, E. coli kanamycin selection, DiMSum; sequences stand for … in CUCUCU…GGAGGGAAAAGUUAUCAGGCAUGCACCUGGUAGCUAGUCUUUAAACCAAUAGAUUGCAUCGGUUUAAAAGGCAAGACCGUCAAAUUGCGGGAAAGGGGUCAACAGCCGUUCAGUACCAAGUCUCAGGGGAAACUUUGAGAUGGCCUUGCAAAGGGUAUGGUAAUAAGCUGACGGACAUGGUCCUAACCACGCAGCCAAGUCCUAAGUCAACAGAUCUUCUGUUGAUAUGGAUGCAGUUCACAGACUAAAUGUCGGUCGGGGAAGAUGUAUUCUUCUCAUAAGAUAUAGUCGGACCUCUCCUUAAUGGGAGCUAGCGGAUGAAGUGAUGCAACACUGGAGCCGCUGGGAACUAAUUUGUAUGCGAAAGUAUAUUGAUUAGUUUUGGAGUACUCGUGGUCG
In short, it runs like this: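 Pooled colonies went to amplicon sequencing on an Illumina HiSeq 2500 after six replicate transformations. The plates were LB agar with 100 μg/mL carbenicillin, 50 μM IPTG and 0.2% rhamnose, with or without 25 μg/mL kanamycin, incubated overnight at 37°C or 30°C. The E. coli BL21(DE3) library had all eight P1ex-region intron nucleotides randomised, the intron placed in the knt kanamycin-resistance gene on pET-22b(+). DiMSum fitness is the error-weighted combination of replicate fold changes, kanamycin against none, normalised to wild type.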

For the sequence CUUUAGCAAUAUUACGAAAU, the “self-splicing fitness (ln)” value runs as follows: (30 °C) -2.94 ± 0.36; (37 °C) -1.99 ± 0.41.
With AGUUAGCAAUAUUACGCAAG, the “self-splicing fitness (ln)” value is, setting by setting: (30 °C) -2.63 ± 0.12; (37 °C) -1.24 ± 0.13.
For the sequence AUCCAGCAAUAUUACGAGAU, the “self-splicing fitness (ln)” value was -3.77 ± 0.2 (30 °C) and -2.22 ± 0.19 (37 °C).
Regarding UUGAAGCAAUAUUACGGGAC, the “self-splicing fitness (ln)” value reads like this: (30 °C) -2.18 ± 0.3; (37 °C) -2.34 ± 0.28.
Taken in the same sequence, the figures for UGAGAGCAAUAUUACGAUAC were -3.92 ± 0.46 and -1.91 ± 0.34.
For the sequence GGGGAGCAAUAUUACGUGAG, the “self-splicing fitness (ln)” value runs as follows: (30 °C) -1.74 ± 0.26; (37 °C) -1.36 ± 0.2.
For GUAAAGCAAUAUUACGAGGC, the “self-splicing fitness (ln)” value (30 °C) is -2.91 ± 0.18 and the “self-splicing fitness (ln)” value (37 °C) is -2.44 ± 0.24.
Turning to CGUAAGCAAUAUUACGACAC, the “self-splicing fitness (ln)” value by setting is: (30 °C) -2.84 ± 0.14; (37 °C) -2.55 ± 0.16.
With AGCAAGCAAUAUUACGGAUC, the “self-splicing fitness (ln)” value is, setting by setting: (30 °C) -2.73 ± 0.17; (37 °C) -1.08 ± 0.16.
Taken in the same sequence, the figures for GCAAAGCAAUAUUACGCCAU were -2.9 ± 0.17 and -1.6 ± 0.22.
For GGGCAGCAAUAUUACGGGUG, the “self-splicing fitness (ln)” value (30 °C) was -3.07 ± 0.14 and the “self-splicing fitness (ln)” value (37 °C) is -1.71 ± 0.19.
In the case of GAACAGCAAUAUUACGUUAA, the “self-splicing fitness (ln)” value by setting is: (30 °C) -0.997 ± 0.068; (37 °C) -0.105 ± 0.08.
With AUCGAGCAAUAUUACGCUGU, the “self-splicing fitness (ln)” value is, setting by setting: (30 °C) -2.24 ± 0.18; (37 °C) -3.35 ± 0.37.
Taken in the same sequence, the figures for CGCUAGCAAUAUUACGGGUU were -2.73 ± 0.082 and -2.04 ± 0.11.
For CCAUAGCAAUAUUACGAUAC, the “self-splicing fitness (ln)” value by setting is: (30 °C) -3 ± 0.29; (37 °C) -2.33 ± 0.23.
Taken in the same sequence, the figures for UAACAGCAAUAUUACGGCAA were -0.777 ± 0.089 and 0.203 ± 0.096.
GCGGAGCAAUAUUACGUUUC: the “self-splicing fitness (ln)” value (30 °C) is -2.57 ± 0.39.
AUAGAGCAAUAUUACGGGGU: the “self-splicing fitness (ln)” value was -3.46 ± 0.21 (30 °C) and -3.53 ± 0.23 (37 °C).
Taken in the same sequence, the figures for AGACAGCAAUAUUACGUCCU were -0.567 ± 0.052 and -0.257 ± 0.066.
Taken in the same sequence, the figures for CAUCAGCAAUAUUACGGCCA were -2.63 ± 0.28 and -0.947 ± 0.27.
Taken in the same sequence, the figures for UUGAAGCAAUAUUACGCUAU were -2.7 ± 0.25 and -1.45 ± 0.26.
Take GGACAGCAAUAUUACGUUUA: the “self-splicing fitness (ln)” value reads like this: (30 °C) -0.44 ± 0.059; (37 °C) 0.258 ± 0.077.
On to GAGUAGCAAUAUUACGUGUU, for which the “self-splicing fitness (ln)” value (30 °C) was -3.05 ± 0.12 and the “self-splicing fitness (ln)” value (37 °C) is -1.12 ± 0.1.
Taken in the same sequence, the figures for UUCCAGCAAUAUUACGAUCG were -2.6 ± 0.12 and -1.04 ± 0.14.
Turning to CGGCAGCAAUAUUACGCCCG, where the note is “30 °C”, the “self-splicing fitness (ln)” value is -2.32 ± 0.47.
Turning to CAUUAGCAAUAUUACGACCG, the “self-splicing fitness (ln)” value by setting is: (30 °C) 0.0272 ± 0.082; (37 °C) 0.169 ± 0.1.
Regarding CUCAAGCAAUAUUACGGAAC, the “self-splicing fitness (ln)” value is, setting by setting: (30 °C) -4.26 ± 0.42; (37 °C) -2.46 ± 0.3.
Taken in the same sequence, the figures for UAAUAGCAAUAUUACGCCGG were -1.23 ± 0.17 and -1.05 ± 0.33.
Taken in the same sequence, the figures for AAUCAGCAAUAUUACGAUGC were -0.408 ± 0.076 and 0.219 ± 0.096.
Taken in the same sequence, the figures for AGGAAGCAAUAUUACGGUGA were -2.15 ± 0.09 and -1.23 ± 0.088.
Consider UUAAAGCAAUAUUACGUGCG, for which the “self-splicing fitness (ln)” value (30 °C) is -0.23 ± 0.058 and the “self-splicing fitness (ln)” value (37 °C) was -0.242 ± 0.085.
Turning to UGGCAGCAAUAUUACGUCCA, the “self-splicing fitness (ln)” value (30 °C) was -1.23 ± 0.12 and the “self-splicing fitness (ln)” value (37 °C) was -0.471 ± 0.16.
Taken in the same sequence, the figures for UACUAGCAAUAUUACGCUAG were -3.86 ± 0.25 and -2.08 ± 0.21.
Consider UCCGAGCAAUAUUACGUACU, for which the “self-splicing fitness (ln)” value is, setting by setting: (30 °C) -3.69 ± 0.25; (37 °C) -2.55 ± 0.34.
Taken in the same sequence, the figures for CCUUAGCAAUAUUACGGAGU were -3.24 ± 0.21 and -2.78 ± 0.19.
In the case of ACGGAGCAAUAUUACGCGUA, the “self-splicing fitness (ln)” value reads like this: (30 °C) -2.62 ± 0.12; (37 °C) -1.32 ± 0.11.
Consider GGCAAGCAAUAUUACGAGAU, for which the “self-splicing fitness (ln)” value (30 °C) is -2.56 ± 0.21 and the “self-splicing fitness (ln)” value (37 °C) is -0.168 ± 0.15.
Taken in the same sequence, the figures for CUAAAGCAAUAUUACGGGUU were -4.13 ± 0.28 and -3.49 ± 0.33.
